B1: AaBGL1 (Thermomonospora amylolytica) (protein)
chain: MNLPADFLFGAATSAYQIEGAPAADGRLPSIWDDFCRVPGAIAGGDTGDVACDHYHRWREDVALMRRLGLDAYRFSVAWPRVVPRGTGEVNRPGLDFYDRLVDALLAAGIRPFVTLYHWDLPSALQERGGWPSRDTAAHFADYAAVVAARLGDRVTDWTTLNEPLCTAWIGHLEGRFAPGVRDLRQAVHASHHLLLAHGLGAAAIRANASAPPSIGLVNNLSPIQAASDRPEDVRAAIRADGHVNRWWLDPAHGRGYPADMIEVYGVEPPVRDGDLETIAAPVEYVGLNYYFRQIVADDPDGPAPYARQVPVPGAQTTAMGWEVHADGLAELLLRLSEDYTAPRIYVTESGSAWDDKVGADGSINDQDRIAYLEDHLAAVARAAEAGAPVQGYFVWSLLDNFEWADGLDKRFGLVHVDYATQQRTVKASGHRYAEIIRAHRGAP
B2: AaBGL2 (Thermomonospora amylolytica) (protein)
chain: MTAHETQAQIREPATAPFPQDFRWGAATSAYQIEGAVAEDGRGRSIWDTFCDTPGAVLGGDTAAEAVDHYHRYREDVALMAGLGLNAYRFSLSWPRIQPSGTGPADQRGLDFYRRLVDELLEAGIEPWITLYHWDLPQALEDKGGWPERDTALRFAEFAALAHGALGDRVSNWMTINEPWCAAYLGYASGEHAPGRREPAAALEAAHHLLLGHGLAVEAMRGQRSGARIGPAVNLYAVSPAADTPEDLDAARRIDGLQNRFFLDALLLGRYPDDLLEDLAPFGFADCVRDGDMRVVGVRNDLLGINYYTRHTVSGRPGDATQAVSSPFSTVSPWVGSEHVRFVGQGKPVTGMGWEVDPDGLLEVLARLHREYPAVPLYITENGAGYDDVLDADDAVRDDERIAYLDAHLRVCARAIDAGIPLRGYFTWSLMDNFEWAWGYSKRFGLVYVDYATQRRIPKASARWYARTIRRGGLPD

Substrate: O=[N+]([O-])c1ccc(O[C@@H]2O[C@H](CO)[C@@H](O)[C@H](O)[C@H]2O)cc1
Assay: purified protein
Conditions: 5 min, pNPG 0.5-5.0 mg/ml
[1] = optimal pH (6.0) and temperature
[2] = optimal pH 6.0 and temperature 50°C, pH 6.0, 50.0 °C

Protein	Km [1]	Vmax [1]	kcat [1]	Km [2]	Vmax [2]	kcat [2]
B1	3300 µM	6.8 µmol/min/mg	5.5 s⁻¹			
B2				730 µM	1.9 µmol/min/mg	1.7 s⁻¹
